Key:
[1] = target: endogenous Gab1 of EGF stimulated A431 cells (Homo sapiens (Human)); test: PI-3-kinase activity assay on anti-Gab1 immunoprecipitates from A431 cells
[2] = target: endogenous Gab1 of insulin stimulated A431 cells (Homo sapiens (Human)); test: as above
[3] = target: endogenous Gab1 of EGF stimulated A431 cells (Homo sapiens (Human)); test: PI-3-kinase activity assay on immunoprecipitates from EGF stimulated A431 cells
[4] = target: Gab1 of insulin-stimulated 3T3-L1 fibroblasts (Mus musculus (Mouse)) (UniProt Q9QYY0); test: PI-3-kinase activity assay on anti-Gab1 immunoprecipitates from 3T3-L1 fibroblasts
[5] = target: Gab1 of insulin-stimulated 3T3-L1 fibroblasts (Mus musculus (Mouse)) (UniProt Q9QYY0); test: PI-3-kinase activity assay on immunoprecipitates from insulin stimulated 3T3-L1 fibroblasts

fold increase of PI-3-kinase activity in anti-Gab1 immunoprecipitates against unstimulated cells [1] [fold]	fold increase of PI-3-kinase activity in Gab1 immunoprecipitates [2] [fold]	anti-Gab1 associated PI-3-kinase activity as percent of that in anti-phosphotyrosine immunoprecipitates [3] [%]	fold increase of PI-3-kinase activity in Gab1 immunoprecipitates [4] [fold]	Gab1 associated PI-3-kinase activity as percent of that associated with anti-phosphotyrosine [5] [%]	Substance
2.3	1.7	42	–	–	PI-3-kinase of A431 cells (enzyme)
–	–	–	2.4	71	PI-3-kinase of 3T3-L1 fibroblasts (enzyme)
